According to patent publication US20240327815A1:

Legend:
[1] = target: Alpha SARS-CoV-2 spike on pseudotyped lentivirus (SARS-CoV-2) (UniProt P0DTC2); assay: cell-based or functional assay
[2] = target: Beta SARS-CoV-2 spike on pseudotyped lentivirus (SARS-CoV-2) (UniProt P0DTC2); assay: cell-based or functional assay
[3] = target: Delta SARS-CoV-2 spike on pseudotyped lentivirus (SARS-CoV-2) (UniProt P0DTC2); assay: cell-based or functional assay
[4] = target: spike of live SARS-CoV-2 Beta variant (SARS-CoV-2) (UniProt P0DTC2); assay: cell-based or functional assay
[5] = target: spike of live SARS-CoV-2 Delta variant (SARS-CoV-2) (UniProt P0DTC2); assay: cell-based or functional assay
[6] = target: B.1.1.7 (Alpha) SARS-CoV-2 spike protein, plate-coated (MSD) (SARS-CoV-2) (UniProt P0DTC2); assay: MSD competition vs labelled ACE2
[7] = target: B.1.351 (Beta) SARS-CoV-2 spike protein, plate-coated (MSD) (SARS-CoV-2) (UniProt P0DTC2); assay: MSD competition vs labelled ACE2
[8] = target: Delta SARS-CoV-2 spike protein, plate-coated (MSD) (SARS-CoV-2) (UniProt P0DTC2); assay: MSD competition vs labelled ACE2
[9] = target: Omicron SARS-CoV-2 spike protein, plate-coated (MSD) (SARS-CoV-2) (UniProt P0DTC2); assay: MSD competition vs labelled ACE2
[10] = target: P.1 (Gamma) SARS-CoV-2 spike protein, plate-coated (MSD) (SARS-CoV-2) (UniProt P0DTC2); assay: MSD competition vs labelled ACE2

REGEN-COV
Pseudovirus Neutralization (IC50, nM) [1]: 0.06 nM
Pseudovirus Neutralization (IC50, nM) [2]: 4.9 nM
Pseudovirus Neutralization (IC50, nM) [3]: 0.05 nM
Pseudovirus neutralization IC50 [3]: 50 pM
Live virus neutralization (MN50, nM) [4]: 0.08 nM
Live virus neutralization (MN50, nM) [5]: 0.05 nM
Live virus neutralization MN50 [5]: 0.05 nM
IC50 [6]: 60 pM
IC50 [7]: 350 pM
IC50 [8]: 50 pM
IC50 [9]: 13100 pM
IC50 [10]: 400 pM
